Test results published in paper PMC11695723, “MCM2-7 ring closure involves the Mcm5 C-terminus and triggers Mcm4 ATP hydrolysis” (Nature Communications, 2025).

What was measured:
Conditions in all cases: both partners purified
[1] = target: T1, Mcm4 (S. cerevisiae, UniProt P30665 1-933); test: cryo-EM structure; closed-gate OCCM (ORC-Cdc6-Cdt1-MCM2-7) on ARS1 DNA with ATPγS; focused 3D classification of the particles of ref. 13; about 10% of the particles; 6.1 Å
T1 construct: Mcm4, S. cerevisiae; subunit of the MCM2-7 hexamer; source: S. cerevisiae, galactose-induced, purified as a subunit of MCM2-7 (anti-HA beads, HA peptide, gel filtration)
T1 sequence: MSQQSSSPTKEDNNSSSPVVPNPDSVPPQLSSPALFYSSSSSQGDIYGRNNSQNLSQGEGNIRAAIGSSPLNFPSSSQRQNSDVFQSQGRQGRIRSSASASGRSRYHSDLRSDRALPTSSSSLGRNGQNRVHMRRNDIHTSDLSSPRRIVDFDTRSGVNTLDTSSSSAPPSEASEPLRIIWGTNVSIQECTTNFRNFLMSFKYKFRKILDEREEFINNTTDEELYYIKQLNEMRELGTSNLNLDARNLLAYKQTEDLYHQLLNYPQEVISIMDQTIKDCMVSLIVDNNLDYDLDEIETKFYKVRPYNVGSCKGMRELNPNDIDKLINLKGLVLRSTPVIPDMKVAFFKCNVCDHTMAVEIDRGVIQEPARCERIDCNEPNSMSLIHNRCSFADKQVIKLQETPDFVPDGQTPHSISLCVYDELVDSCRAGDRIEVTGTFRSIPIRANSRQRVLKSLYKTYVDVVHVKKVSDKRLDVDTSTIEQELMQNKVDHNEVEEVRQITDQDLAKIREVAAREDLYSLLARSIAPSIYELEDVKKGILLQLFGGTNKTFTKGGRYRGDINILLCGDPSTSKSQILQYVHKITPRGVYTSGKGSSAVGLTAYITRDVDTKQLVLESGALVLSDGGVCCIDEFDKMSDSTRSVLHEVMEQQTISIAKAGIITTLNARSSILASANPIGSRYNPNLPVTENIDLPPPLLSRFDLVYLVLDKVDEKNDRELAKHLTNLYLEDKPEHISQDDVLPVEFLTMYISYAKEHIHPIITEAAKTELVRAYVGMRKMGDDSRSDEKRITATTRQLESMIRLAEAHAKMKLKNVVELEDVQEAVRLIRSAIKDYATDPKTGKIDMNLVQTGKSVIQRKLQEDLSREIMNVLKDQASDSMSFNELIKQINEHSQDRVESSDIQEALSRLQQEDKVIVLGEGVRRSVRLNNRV

[2] = target: T2, Mcm3 (HA-tagged) (S. cerevisiae, UniProt P24279 1-971); test: pull-down; 150 nM MCM2-7 alone in pre-RC buffer, bound to anti-HA magnetic beads by the HA-tag on Mcm3, low salt wash (pre-RC buffer), HA peptide elution, silver stain
T2 construct: Mcm3, S. cerevisiae; subunit of the MCM2-7 hexamer; bait of the anti-HA bead pulldowns; source: S. cerevisiae, galactose-induced, purified as a subunit of MCM2-7 (anti-HA beads, HA peptide, gel filtration)
T2 sequence (P24279 whole entry): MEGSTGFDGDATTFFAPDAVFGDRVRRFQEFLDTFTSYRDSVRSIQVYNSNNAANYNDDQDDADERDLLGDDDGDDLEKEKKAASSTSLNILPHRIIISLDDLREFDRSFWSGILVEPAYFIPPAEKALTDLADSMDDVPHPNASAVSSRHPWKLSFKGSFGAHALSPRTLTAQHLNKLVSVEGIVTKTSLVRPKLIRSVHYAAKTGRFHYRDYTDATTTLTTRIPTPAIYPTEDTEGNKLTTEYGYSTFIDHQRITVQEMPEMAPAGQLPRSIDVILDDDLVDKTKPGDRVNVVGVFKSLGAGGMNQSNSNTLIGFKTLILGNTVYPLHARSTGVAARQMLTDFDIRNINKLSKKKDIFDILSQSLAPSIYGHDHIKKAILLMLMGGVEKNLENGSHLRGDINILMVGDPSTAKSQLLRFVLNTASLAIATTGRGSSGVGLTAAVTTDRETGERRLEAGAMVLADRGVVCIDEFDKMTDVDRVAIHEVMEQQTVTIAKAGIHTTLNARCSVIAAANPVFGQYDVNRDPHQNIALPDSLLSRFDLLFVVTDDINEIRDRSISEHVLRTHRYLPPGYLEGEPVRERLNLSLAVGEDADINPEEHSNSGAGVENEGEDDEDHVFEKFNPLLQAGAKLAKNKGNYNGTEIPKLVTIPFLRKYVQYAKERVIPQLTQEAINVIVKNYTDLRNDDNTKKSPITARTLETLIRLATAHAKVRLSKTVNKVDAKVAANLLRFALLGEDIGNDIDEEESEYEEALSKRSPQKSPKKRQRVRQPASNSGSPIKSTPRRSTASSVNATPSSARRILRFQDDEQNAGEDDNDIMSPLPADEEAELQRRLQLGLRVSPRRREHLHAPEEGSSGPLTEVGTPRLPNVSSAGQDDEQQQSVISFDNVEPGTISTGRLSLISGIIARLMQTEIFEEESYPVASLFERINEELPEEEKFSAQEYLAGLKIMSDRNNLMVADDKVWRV

[3] = target: T3, Origin Recognition Complex (ORC) (UniProt P54784 1-914; P32833 1-620; P54790 1-616; P54791 1-529; P50874 1-479; P38826 …); test: cryo-EM structure; closed-gate OCCM (ORC-Cdc6-Cdt1-MCM2-7) on ARS1 DNA with ATPγS; focused 3D classification of the particles of ref. 13; about 10% of the particles; 6.1 Å
T3 construct: Orc1; Orc2; Orc3; Orc4; Orc5; Orc6; in all assays ORC stood with ARS1 DNA; source: Hi-5 cells, baculovirus (Orc1,6; Orc2,5; Orc3,4), purified (ammonium sulphate, SP Sepharose, Mono Q, Superdex 200); copies: + + + + +

[4] = target: T4, MCM2-7 (wild type) (S. cerevisiae, UniProt P29469 1-868; P24279 1-971; P30665 1-933; P29496 1-775; P53091 1-1017; P38132 …); test: pull-down; pre-RC pulldown: 150 nM ORC, 300 nM Cdc6, 150 nM Cdt1, 150 nM MCM2-7 and 200 nM 290 bp ARS1 DNA in solution, anti-HA beads (HA-Mcm3), low salt wash, HA peptide elution
T4 construct: Mcm2, S. cerevisiae; Mcm3, S. cerevisiae; Mcm4, S. cerevisiae; Mcm5, S. cerevisiae; Mcm6, S. cerevisiae; Mcm7, S. cerevisiae; hetero-hexamer; plasmids and strains are in Supplementary Data 1; also called WT MCM2-7; copies: + + + + +
T4 sequence (P29469 whole entry, chain 1 of 3): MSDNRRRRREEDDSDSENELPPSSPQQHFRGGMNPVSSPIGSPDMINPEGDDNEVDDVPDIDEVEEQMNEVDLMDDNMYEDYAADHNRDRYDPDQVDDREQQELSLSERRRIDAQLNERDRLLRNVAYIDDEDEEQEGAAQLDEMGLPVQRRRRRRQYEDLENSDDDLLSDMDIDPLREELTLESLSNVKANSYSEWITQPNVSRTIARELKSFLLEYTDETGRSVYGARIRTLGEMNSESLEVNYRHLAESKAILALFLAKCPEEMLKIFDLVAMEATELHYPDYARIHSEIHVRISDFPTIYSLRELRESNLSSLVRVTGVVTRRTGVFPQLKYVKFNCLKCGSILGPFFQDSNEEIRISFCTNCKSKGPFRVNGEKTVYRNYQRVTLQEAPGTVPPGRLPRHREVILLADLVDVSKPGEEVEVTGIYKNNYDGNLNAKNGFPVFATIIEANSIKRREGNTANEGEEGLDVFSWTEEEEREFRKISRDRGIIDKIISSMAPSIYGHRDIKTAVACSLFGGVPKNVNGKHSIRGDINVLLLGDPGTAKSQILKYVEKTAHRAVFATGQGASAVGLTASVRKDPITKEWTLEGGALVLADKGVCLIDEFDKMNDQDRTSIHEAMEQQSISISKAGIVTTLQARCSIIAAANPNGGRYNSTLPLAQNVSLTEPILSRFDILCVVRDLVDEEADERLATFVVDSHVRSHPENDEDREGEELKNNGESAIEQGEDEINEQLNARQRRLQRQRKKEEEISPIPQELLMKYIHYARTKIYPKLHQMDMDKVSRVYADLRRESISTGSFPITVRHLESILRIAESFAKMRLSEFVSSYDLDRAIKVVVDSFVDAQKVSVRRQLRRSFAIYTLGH
T4 sequence (P24279 whole entry, chain 2 of 3): as the sequence (P24279 whole entry) above
T4 sequence (P53091 whole entry, chain 5 of 3): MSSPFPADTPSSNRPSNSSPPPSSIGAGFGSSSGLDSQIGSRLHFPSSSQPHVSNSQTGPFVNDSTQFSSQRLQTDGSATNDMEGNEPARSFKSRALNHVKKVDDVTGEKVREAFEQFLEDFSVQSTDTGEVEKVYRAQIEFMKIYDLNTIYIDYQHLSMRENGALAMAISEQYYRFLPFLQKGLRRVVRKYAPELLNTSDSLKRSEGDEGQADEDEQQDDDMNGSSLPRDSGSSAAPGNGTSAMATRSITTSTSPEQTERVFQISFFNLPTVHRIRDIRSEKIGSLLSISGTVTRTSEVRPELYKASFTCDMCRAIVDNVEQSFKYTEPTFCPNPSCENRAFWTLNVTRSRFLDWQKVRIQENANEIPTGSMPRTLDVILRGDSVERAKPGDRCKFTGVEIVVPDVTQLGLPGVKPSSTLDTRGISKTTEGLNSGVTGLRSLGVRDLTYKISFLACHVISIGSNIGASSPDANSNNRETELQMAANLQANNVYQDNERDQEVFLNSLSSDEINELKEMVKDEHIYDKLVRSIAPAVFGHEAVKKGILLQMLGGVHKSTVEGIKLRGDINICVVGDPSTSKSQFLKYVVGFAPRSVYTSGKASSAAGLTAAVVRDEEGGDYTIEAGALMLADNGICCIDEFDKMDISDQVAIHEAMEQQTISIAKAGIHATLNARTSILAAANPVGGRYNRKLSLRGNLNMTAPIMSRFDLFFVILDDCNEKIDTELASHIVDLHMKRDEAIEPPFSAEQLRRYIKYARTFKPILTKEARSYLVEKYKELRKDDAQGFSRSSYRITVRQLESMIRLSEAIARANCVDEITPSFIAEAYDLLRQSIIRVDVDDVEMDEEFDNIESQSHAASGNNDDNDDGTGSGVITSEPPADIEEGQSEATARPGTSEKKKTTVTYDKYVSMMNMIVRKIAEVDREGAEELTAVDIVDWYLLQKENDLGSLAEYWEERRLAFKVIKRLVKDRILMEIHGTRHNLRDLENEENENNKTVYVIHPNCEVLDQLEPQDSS

[5] = target: T5, MCM2-7-ΔC5 (S. cerevisiae, UniProt P29469 1-868; P24279 1-971; P30665 1-933; P29496 1-692; P53091 1-1017; P38132 …); test: as above
T5 construct: Mcm2, S. cerevisiae; Mcm3, S. cerevisiae; Mcm4, S. cerevisiae; Mcm5, S. cerevisiae, deletion of residues 693-775 (C-terminal extension C5: linker and WHD); Mcm6, S. cerevisiae; Mcm7, S. cerevisiae; also called mcm5 (Δ693-775); copies: + + + + +
T5 sequence (P29469 whole entry, stated change not applied, chain 1 of 3, the tested form may be a part): as the sequence (P29469 whole entry, chain 1 of 3) above
T5 sequence (P24279 whole entry, stated change not applied, chain 2 of 3, the tested form may be a part): as the sequence (P24279 whole entry) above
T5 sequence (P53091 whole entry, stated change not applied, chain 5 of 3, the tested form may be a part): as the sequence (P53091 whole entry, chain 5 of 3) above

[6] = target: T6, Mcm5 (S. cerevisiae, UniProt P29496 1-775); test: cryo-EM structure; closed-gate OCCM (ORC-Cdc6-Cdt1-MCM2-7) on ARS1 DNA with ATPγS; focused 3D classification of the particles of ref. 13; about 10% of the particles; 6.1 Å
T6 construct: Mcm5, S. cerevisiae; subunit of the MCM2-7 hexamer; source: S. cerevisiae, galactose-induced, purified as a subunit of MCM2-7 (anti-HA beads, HA peptide, gel filtration)
T6 sequence: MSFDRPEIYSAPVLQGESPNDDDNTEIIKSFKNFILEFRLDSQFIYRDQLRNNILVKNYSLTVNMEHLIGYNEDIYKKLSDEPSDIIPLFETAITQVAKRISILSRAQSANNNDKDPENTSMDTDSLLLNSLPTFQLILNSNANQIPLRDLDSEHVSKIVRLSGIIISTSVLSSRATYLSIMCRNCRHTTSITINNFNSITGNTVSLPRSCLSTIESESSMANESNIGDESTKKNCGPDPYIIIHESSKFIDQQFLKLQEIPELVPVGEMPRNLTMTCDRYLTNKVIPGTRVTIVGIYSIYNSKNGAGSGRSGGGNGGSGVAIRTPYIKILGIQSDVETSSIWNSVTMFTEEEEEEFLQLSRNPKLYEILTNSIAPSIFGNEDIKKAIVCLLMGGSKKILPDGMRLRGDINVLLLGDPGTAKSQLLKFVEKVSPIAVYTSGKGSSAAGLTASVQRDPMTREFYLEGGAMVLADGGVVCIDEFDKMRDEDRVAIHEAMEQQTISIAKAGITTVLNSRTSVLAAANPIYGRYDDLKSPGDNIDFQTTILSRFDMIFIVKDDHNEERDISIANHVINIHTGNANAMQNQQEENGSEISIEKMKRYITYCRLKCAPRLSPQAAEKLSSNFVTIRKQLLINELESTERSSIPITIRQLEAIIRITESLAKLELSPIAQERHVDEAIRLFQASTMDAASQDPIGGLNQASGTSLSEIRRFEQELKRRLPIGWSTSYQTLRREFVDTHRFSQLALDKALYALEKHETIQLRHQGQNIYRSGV

B1: Mcm7 (natural protein, S. cerevisiae)
chain: MSAALPSIQLPVDYNNLFNEITDFLVTFKQDTLSSDATRNENEDENLDAENIEQHLLEKGPKYMAMLQKVANRELNSVIIDLDDILQYQNEKFLQGTQADDLVSAIQQNANHFTELFCRAIDNNMPLPTKEIDYKDDVLDVILNQRRLRNERMLSDRTNEIRSENLMDTTMDPPSSMNDALREVVEDETELFPPNLTRRYFLYFKPLSQNCARRYRKKAISSKPLSVRQIKGDFLGQLITVRGIITRVSDVKPAVEVIAYTCDQCGYEVFQEVNSRTFTPLSECTSEECSQNQTKGQLFMSTRASKFSAFQECKIQELSQQVPVGHIPRSLNIHVNGTLVRSLSPGDIVDVTGIFLPAPYTGFKALKAGLLTETYLEAQFVRQHKKKFASFSLTSDVEERVMELITSGDVYNRLAKSIAPEIYGNLDVKKALLLLLVGGVDKRVGDGMKIRGDINVCLMGDPGVAKSQLLKAICKISPRGVYTTGKGSSGVGLTAAVMKDPVTDEMILEGGALVLADNGICCIDEFDKMDESDRTAIHEVMEQQTISISKAGINTTLNARTSILAAANPLYGRYNPRLSPLDNINLPAALLSRFDILFLMLDIPSRDDDEKLAEHVTYVHMHNKQPDLDFTPVEPSKMREYIAYAKTKRPVMSEAVNDYVVQAYIRLRQDSKREMDSKFSFGQATPRTLLGIIRLSQALAKLRLADMVDIDDVEEALRLVRVSKESLYQETNKSKEDESPTTKIFTIIKKMLQETGKNTLSYENIVKTVRLRGFTMLQLSNCIQEYSYLNVWHLINEGNTLKFVDDGTMDTDQEDSLVSTPKLAPQTTASANVSAQDSDIDLQDA
notes: Mcm7, S. cerevisiae; subunit of the MCM2-7 hexamer; source: S. cerevisiae, galactose-induced, purified as a subunit of MCM2-7 (anti-HA beads, HA peptide, gel filtration)
B1: binds [1]; binds [2].

B2: Cdc6 (natural protein)
chain: MSAIPITPTKRIRRNLFDDAPATPPRPLKRKKLQFTDVTPESSPEKLQFGSQSIFLRTKALLQKSSELVNLNSSDGALPARTAEYEQVMNFLAKAISEHRSDSLYITGPPGTGKTAQLDMIIRQKFQSLPLSLSTPRSKDVLRHTNPNLQNLSWFELPDGRLESVAVTSINCISLGEPSSIFQKIFDSFQDLNGPTLQIKNMQHLQKFLEPYHKKTTFVVVLDEMDRLLHANTSETQSVRTILELFLLAKLPTVSFVLIGMANSLDMKDRFLSRLNLDRGLLPQTIVFQPYTAEQMYEIVIQKMSSLPTIIFQPMAIKFAAKKCAGNTGDLRKLFDVLRGSIEIYELEKRFLLSPTRGSLNSAQVPLTPTTSPVKKSYPEPQGKIGLNYIAKVFSKFVNNNSTRTRIAKLNIQQKLILCTIIQSLKLNSDATIDESFDHYIKAITKTDTLAPLQRNEFLEICTILETCGLVSIKKTKCKGKTKRFVDKIDVDLDMREFYDEMTKISILKPFLH
notes: Cdc6; also called WT Cdc6; source: E. coli BL21 codon-plus, purified (glutathione-agarose, PreScission Protease, hydroxyapatite)
B2: binds [3]; binds [4]; binds [5].

B3: Orc3 (natural protein)
chain: MSDLNQSKKMNVSEFADAQRSHYTVYPSLPQSNKNDKHIPFVKLLSGKESEVNVEKRWELYHQLHSHFHDQVDHIIDNIEADLKAEISDLLYSETTQKRRCFNTIFLLGSDSTTKIELKDESSRYNVLIELTPKESPNVRMMLRRSMYKLYSAADAEEHPTIKYEDINDEDGDFTEQNNDVSYDLSLVENFKRLFGKDLAMVFNFKDVDSINFNTLDNFIILLKSAFKYDHVKISLIFNINTNLSNIEKNLRQSTIRLLKRNYHKLDVSSNKGFKYGNQIFQSFLDTVDGKLNLSDRFVEFILSKMANNTNHNLQLLTKMLDYSLMSYFFQNAFSVFIDPVNVDFLNDDYLKILSRCPTFMFFVEGLIKQHAPADEILSLLTNKNRGLEEFFVEFLVRENPINGHAKFVARFLEEELNITNFNLIELYHNLLIGKLDSYLDRWSACKEYKDRLHFEPIDTIFQELFTLDNRSGLLTQSIFPSYKSNIEDNLLSWEQVLPSLDKENYDTLSGDLDKIMAPVLGQLFKLYREANMTINIYDFYIAFRETLPKEEILNFIRKDPSNTKLLELAETPDAFDKVALILFMQAIFAFENMGLIKFQSTKSYDLVEKCVWRGI
notes: Orc3; subunit of ORC; source: Hi-5 cells, baculovirus, purified as a subunit of ORC
B3: binds [6].

B4: Mcm5 lacking its C-terminus (subunit of MCM2-7-ΔC5) (domain or fragment, S. cerevisiae, UniProt P29496 1-692, looked up)
chain: MSFDRPEIYSAPVLQGESPNDDDNTEIIKSFKNFILEFRLDSQFIYRDQLRNNILVKNYSLTVNMEHLIGYNEDIYKKLSDEPSDIIPLFETAITQVAKRISILSRAQSANNNDKDPENTSMDTDSLLLNSLPTFQLILNSNANQIPLRDLDSEHVSKIVRLSGIIISTSVLSSRATYLSIMCRNCRHTTSITINNFNSITGNTVSLPRSCLSTIESESSMANESNIGDESTKKNCGPDPYIIIHESSKFIDQQFLKLQEIPELVPVGEMPRNLTMTCDRYLTNKVIPGTRVTIVGIYSIYNSKNGAGSGRSGGGNGGSGVAIRTPYIKILGIQSDVETSSIWNSVTMFTEEEEEEFLQLSRNPKLYEILTNSIAPSIFGNEDIKKAIVCLLMGGSKKILPDGMRLRGDINVLLLGDPGTAKSQLLKFVEKVSPIAVYTSGKGSSAAGLTASVQRDPMTREFYLEGGAMVLADGGVVCIDEFDKMRDEDRVAIHEAMEQQTISIAKAGITTVLNSRTSVLAAANPIYGRYDDLKSPGDNIDFQTTILSRFDMIFIVKDDHNEERDISIANHVINIHTGNANAMQNQQEENGSEISIEKMKRYITYCRLKCAPRLSPQAAEKLSSNFVTIRKQLLINELESTERSSIPITIRQLEAIIRITESLAKLELSPIAQERHVDEAIRLFQASTMDAA
notes: Mcm5, S. cerevisiae, deletion of residues 693-775 (C5); also called mcm5ΔC5; mcm5 (Δ693-775); source: S. cerevisiae, galactose-induced, purified as a subunit of MCM2-7-ΔC5 (anti-HA beads, HA peptide, gel filtration)
B4: binds [2].
